Among the data in PMC5043372 (2016) are Kd and Ka values, retold here.

Non-standard residues stand in square brackets, D forms with d. No end group written: not given here. pY = N[C@@H](Cc1ccc(OP(=O)(O)O)cc1)C(=O)O

Holding throughout (experiment): ITC
In general terms: ITC needs no label: the signal is the heat of the interaction.

In test [1] the target is T1, SH2 domain of human CRK (human, UniProt P46108 13-118).
Test [2] has as its target T2, SH2 domain of Monosiga brevicollis crka1 (Monosiga brevicollis, UniProt A0A1C9VNP8 1-97).
T2 chain: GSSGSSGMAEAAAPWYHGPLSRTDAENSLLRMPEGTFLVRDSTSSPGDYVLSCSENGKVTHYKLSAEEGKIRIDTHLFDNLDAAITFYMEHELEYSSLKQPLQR

For test [3], the target named is T3, SH2 domain of human CRKL (human, UniProt P46109 14-102).
T3 sequence (P46109 other isoform, or with tags, fused parts or gaps): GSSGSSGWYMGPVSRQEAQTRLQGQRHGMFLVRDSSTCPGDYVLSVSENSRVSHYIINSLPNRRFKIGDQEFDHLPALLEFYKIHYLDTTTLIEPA
In test [4] the target is T3, SH2 domain of human CRKL. The source holds these as a separate data set.
In test [5] the target is T2, SH2 domain of Monosiga brevicollis crka1.
For test [6], the target named is T1, SH2 domain of human CRK. This is another data set of the same source.

T1 sequence (P46108 other isoform, or with tags, fused parts or gaps): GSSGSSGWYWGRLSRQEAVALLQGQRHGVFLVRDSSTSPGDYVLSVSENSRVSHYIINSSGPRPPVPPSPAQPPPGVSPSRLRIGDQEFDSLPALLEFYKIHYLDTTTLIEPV

B1: ROR1 Y789 peptide PN-pYMFP-SQ (peptide)
chain: PN[pY]MFPSQ
As for B1, in the test with SH2 domain of human CRK [1], binding was characterised by a dissociation constant (Kd) of 8.85 µM.

B2: CRK Y221 peptide GP-pYAQP-SV (peptide)
chain: GP[pY]AQPSV
For B2, binding with SH2 domain of human CRK [1] was characterised by a dissociation constant (Kd) of 10.2 µM.

B3: EPHB6 Y635 peptide QQ-pYSSP-GL (peptide)
chain: QQ[pY]SSPGL
For B3, the Kd (in general, the free concentration of one partner at which half of the binding sites on the other are occupied at equilibrium, for simple one-to-one binding) in the test with SH2 domain of human CRK [1] was found to be 5.21 µM.

B4: phosphopeptide EM-pYDVP-RS of S. rosetta PTSG_05573 (peptide)
peptide: EM[pY]DVPRS
Take B4: in test [2], binding was characterised by a dissociation constant (Kd) of 118 µM.

B5: p130Cas (Bcar1) Y376 peptide DL-pYDVP-PG (peptide)
chain: DL[pY]DVPPG
In turn, B5 displayed an equilibrium dissociation constant (Kd) with SH2 domain of human CRK [1] of 4.83 µM.

B6: p130Cas (Bcar1) Y169 peptide DL-pYQVP-PG (peptide)
chain: DL[pY]QVPPG
Molecule B6 had a Kd with SH2 domain of human CRK [1] of 2.17 µM.

B7: PDGFRB Y771 peptide SN-pYMAP-YD (peptide)
chain: SN[pY]MAPYD
The molecule B7 yielded a Kd in the test with SH2 domain of human CRK [1] of 25.1 µM.

B8: phosphopeptide DM-pYDVP-RN of S. rosetta PTSG_05573 (peptide)
peptide: DM[pY]DVPRN
B8 gave a Kd in test [2] of 61.7 µM.

B9: phosphotyrosyl peptide from M. musculus Bcar1 (p130Cas, Y238) (peptide)
chain: DE[pY]DTPRH
On to B9, for which the Kd with SH2 domain of human CRKL [3] came to 0.368 µM; in test [2], 10.1 µM; with SH2 domain of human CRK [1], 0.127 µM.

B10: PLCG1 Y509 peptide PH-pYFVL-TS (peptide)
chain: PH[pY]FVLTS
B10 yielded a Kd with SH2 domain of human CRK [1] of 8.93 µM.

B11: phosphotyrosyl peptide from M. musculus Dok7 (Y406) (peptide)
chain: HH[pY]DTPRS
In the case of B11, the Ka with SH2 domain of human CRKL [4] was found to be 9.16e+06 M⁻¹; in test [5] it was 116000 M⁻¹. The Kd amounted to 0.109 µM with SH2 domain of human CRKL [3], 8.62 µM in test [2] and 0.0602 µM with SH2 domain of human CRK [1].

B12: p130Cas (Bcar1) Y291 peptide DV-pYDVP-PS (peptide)
chain: DV[pY]DVPPS
On to B12, for which the results for the Kd in the test with SH2 domain of human CRKL [3] and in the test with SH2 domain of human CRK [1] were 1.06 µM and 0.455 µM, respectively.

B13: Dok7 Y396 (peptide)
chain: AE[pY]QVPTS
Turning to B13, the Ka in the test with SH2 domain of human CRKL [4] turned out to be 1.53e+06 M⁻¹; in test [5], 23300 M⁻¹; with SH2 domain of human CRK [6], 2.34e+06 M⁻¹.

B14: Dok7 (Y396) peptide AE-pYQVP-TS (peptide)
chain: AE[pY]QVPTS
As to B14, the Kd amounted to 0.654 µM in the test with SH2 domain of human CRKL [3], 42.9 µM in test [2] and 0.427 µM with SH2 domain of human CRK [1].

B15: Bcar1 Y169 (peptide)
chain: DL[pY]QVPPG
Turning to B15, the Ka with SH2 domain of human CRK [6] was 460000 M⁻¹.

B16: paxillin (PXN) Y118 peptide HV-pYSFP-NK (peptide)
chain: HV[pY]SFPNK
In the case of B16, the Kd with SH2 domain of human CRK [1] was found to be 2.48 µM.

B17: ZAP70 Y315 peptide SV-pYESP-YS (peptide)
chain: SV[pY]ESPYS
As to B17, the Kd in the test with SH2 domain of human CRK [1] was determined as 4.44 µM.

B18: p130Cas (Bcar1) Y310 peptide SV-pYDVP-PS (peptide)
chain: SV[pY]DVPPS
Consider B18, for which binding in the test with SH2 domain of human CRK [1] was characterised by a dissociation constant (Kd) of 0.649 µM.

B19: FRS2 Y349 peptide LN-pYENL-PS (peptide)
chain: LN[pY]ENLPS
For the molecule B19, in test [2], the Kd worked out at 126 µM.

B20: PDGFRA Y762 peptide SL-pYDRP-AS (peptide)
chain: SL[pY]DRPAS
In the test with SH2 domain of human CRK [1], B20 had a Kd of 0.98 µM.

B21: PLCG1 Y1253 peptide SR-pYQQP-FE (peptide)
chain: SR[pY]QQPFE
For the molecule B21, the Kd with SH2 domain of human CRKL [3] turned out to be 9.8 µM; with SH2 domain of human CRK [1], 6.45 µM.

B22: p130Cas (Bcar1) Y271 peptide EV-pYDTP-PM (peptide)
chain: EV[pY]DTPPM
The molecule B22 had a Kd with SH2 domain of human CRK [1] of 1.07 µM.
